{"source": "patent CN110563841A", "key": {"[1]": {"target": "重组Grb2蛋白 (recombinant Grb2 protein) (UniProt P62993)", "sequence (P62993 whole entry)": "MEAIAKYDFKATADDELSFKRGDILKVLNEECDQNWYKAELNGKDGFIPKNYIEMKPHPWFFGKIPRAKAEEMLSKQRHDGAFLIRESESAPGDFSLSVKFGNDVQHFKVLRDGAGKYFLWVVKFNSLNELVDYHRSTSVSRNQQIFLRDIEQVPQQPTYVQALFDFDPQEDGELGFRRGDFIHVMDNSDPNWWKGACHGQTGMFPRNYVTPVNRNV", "experiment": "ELISA, recombinant Grb2 coated, antibody 100 ng/mL, goat anti-human IgG Fc-HRP secondary"}, "[2]": {"target": "重组Grb2蛋白 (recombinant Grb2 protein) (UniProt P62993)", "experiment": "ELISA, recombinant Grb2 coated, antibody 100 ng/mL, goat anti-mouse IgG Fc-HRP secondary (does not detect human IgG)"}}, "data": [{"substance": "人IgG1 (irrelevant human IgG1 control antibody)", "values": [{"measurement": "OD490", "setting": "[1]", "result": 0.073}, {"measurement": "OD490", "setting": "[2]", "result": 0.073}]}]}
